# Results taken from the RNAGym collection of RNA variant scans (doi:10.1073/pnas.2313332121).
# B1: TPR t1 (parent)
# chain: GACCAAUCUGCCCUCAGAGCUCGAGAACAUCUUCGGAUGCAGAGGAGGCAGGCUUCGGUGGCGCGAUAGCGCCAACGUCCUCAACCUCCAAUGCAUCCCACCACAUGAUGAUGCCUGAAGAGCCUUGGUUUUUUG
# Variants of: B1
# Assay: polymerase ribozyme fitness, log enrichment relative to wild type (log ratio); higher = more active; in vitro selection for triplet polymerase activity
# How it was run: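 Only genotypes with ≥10 input reads and ≥1 read per output were kept after Illumina sequencing of input and output libraries. These libraries were PCR-built, transcribed mutants of each subunit of a heterodimeric triplet polymerase ribozyme, each put through one triplicate in vitro selection round with frozen incubation at −7 °C, gel excision of extended constructs, streptavidin-bead capture and RT-PCR. Fitness is a logarithmic ratio of genotype enrichment to wild-type enrichment, from inverse-variance-weighted replicate averages, with the logarithm in base 2.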
row,Variant,polymerase ribozyme fitness (log ratio)
1,GACCAAUCUGCCCUCAGAGCUCGAGAACAUCUUCGGAUGCAGAGGAGGCAGGCUUCGGUGGGGCGAUAGCGCCAACGUCCUCUUCCUCCAAUGCAUCCCACCACAUGAUGAUGCCUGAAGAGCCUUGGUUUUUUG,-2.65
2,GACCAAUCUGCCCUCAGAGCUCGAGAACAUCUUCGGAUGCAGAGGAGGCAGGCUUCGGUGGGGCGAUAGCGCCAACGUCCUCAACCUCCAAUGCAUCCCACAACAUGAUGAUGCAUGAAGAGCCUUGGUUUUUUG,-2.67
3,GACCAAUCUGCCCUCAGAGCUCGAGAACAUCUUCGGAUGCAGAGGAGGCAGGCUUCGGUGGGGCGAUAGCGCCAACGUCCUUAACCUCCAAUGCAUCCCACCACAUGAUGAUGCCUCAAGAGCCUUGGUUUUUUG,-5.97
4,GACCAAUCUGCCCUCAGAGCUCGAGAACAUCUUCGGAUGCAGAGGAGGCAGGCUUCGGUGGUGCGAUAGCGCCAACGUCUUCAACCUCCAAUGCAUUCCACCACAUGAUGAUGCCUGAAGAGCCUUGGUUUUUUG,-0.921
5,GACCAAUCUGCCCUCAGAGCUCGAGAACAUCUUCGGAUGCAGAGGAGGCAGGCUUCGGUGGGGCGAUAGCGCCAACGUUCUCAACCUCCAAUGCAUCCCACCACAUGAUGAUGCCUGAAGAGCCUUGGUUUUUUG,-1.14
6,GACCAAUCUGCCCUCAGAGCUCGAGAACAUCUUCGGAUGCAGAGGAGGCAGGCUUCGGUGGUGCGAUAGCGCCAACGUCCUCAACCUCCAAUGCAUCCCACCACAUGAUGAUGCCUGAAGGGCCUUGGUUUUUUG,2.41
7,GACCAAUCUGCCCUCAGAGCUCGAGAACAUCUUCGGAUGCAGAGGAGGCAGGCUUCGGUGGUGCGAUAGCGCAAACGUCCUCAACCUCCAAUGCAUCCCACCACAUGAUGAUACCUGAAGAGCCUUGGUUUUUUG,-1.96
8,GACCAAUCUGCCCUCAGAGCUCGAGAACAUCUUCGGAUGCAGAGGAGGCAGGCUUCGGUGGGGCGAUAGCGCCAACGUCCUCAACCUCCAAUGCAUCCCACCACAUGAUGAUGCCUGAAGAUCCUUGGUUUUUUG,-1.08
9,GACCAAUCUGCCCUCAGAGCUCGAGAACAUCUUCGGAUGCAGAGGAGGCAGGCUUCGGUGGGGCGAUAGCGCCAACGUCCUCAACCUCCAAUCCAUCCCACCACAUGAUGAUGCCUGAAAAGCCGUGGUUGUUUG,-3.65
10,GACCAAUCUGCCCUCAGAGCUCGAGAACAUCUUCGGAUGCAGAGGAGGCAGGCUUCGGUGGUGCGAUAGCGCCAACGUCCUCAACCUCCAAUGCAUCCCACCAGAUGAUGAUGCCUGAAGAGCCUUGGUUUUUUG,-7
11,GACCAAUCUGCCCUCAGAGCUCGAGAACAUCUUCGGAUGCAGAGGAGGCAGGCUUCGGUGGUGCGAUAGCGCCAACGUCCUCACCCUCAAAUGCAUCCCACCACAUGAUGAUGCCUGAAGAGUCUUGGUUUUUUG,-1.62
12,GACCAAUCUGCCCUCAGAGCUCGAGAACAUCUUCGGAUGCAGAGGAGGCAGGCUUCGGUGGGGCGAUAGCGCCAACGUCCUCUACCUCCAAUGCAACCCACCACAUGAUGAUGCCUGAAGAGCCUUGGUUUUUUG,-4.56
13,GACCAAUCUGCCCUCAGAGCUCGAGAACAUCUUCGGAUGCAGAGGAGGCAGGCUUCGGUGGGGCGAUAGCGCCAACGUCCUCAACCUCCAAUGCAUCCCACCACAUGAUGAUGCCUGAAGAGCUUUGGUUUUUUG,0.784
14,GACCAAUCUGCCCUCAGAGCUCGAGAACAUCUUCGGAUGCAGAGGAGGCAGGCUUCGGUGGGGCGAUAGCGCCAACGUCCUCAACCUCCAAUGCAUCCCACCACAUGAUGAUGCCUGAAGAGCAUUGGUUUUUUG,-0.74
15,GACCAAUCUGCCCUCAGAGCUCGAGAACAUCUUCGGAUGCAGAGGAGGCAGGCUUCGGUGGGGCGAUAGCGCCAACGUCCUCAACCUCCAAUGCAUCCCACCACAUGAUGAUGCCUGAUGAGCCUUGCUUUUUUG,-4.08
16,GACCAAUCUGCCCUCAGAGCUCGAGAACAUCUUCGGAUGCAGAGGAGGCAGGCUUCGGUGGUGCGAUAGCGCCAAGGUCCUCUACCUCGAAUGCAUCCCACCACAUGAUGAUGCCCGAAGAGCCUUGGUGUUUUG,-2.99
17,GACCAAUCUGCCCUCAGAGCUCGAGAACAUCUUCGGAUGCAGAGGAGGCAGGCUUCGGUGGUGCGAUAGCGCCAACGUCCUCAACCUCUAAUGCAUCCCACCACAUGAUGAUGCCUGAAGAGCCUUGGUUUUUUG,-0.519
18,GACCAAUCUGCCCUCAGAGCUCGAGAACAUCUUCGGAUGCAGAGGAGGCAGGCUUCGGUGGGGCGAUAGCGCCAACGUCCUCAACCUCCAAUGCAUCCCACCACGUGAUGAUGCCUGAAGAGCCUUGGUUUUUUG,-4.99
19,GACCAAUCUGCCCUCAGAGCUCGAGAACAUCUUCGGAUGCAGAGGAGGCAGGCUUCGGUGGUGCGAUAGCGUCAACGUCCUCAACCUCCAAUGCAUCCCACCACAUGAUGAUGCCUGAAGAGCCUUGGUUUUUUG,-1.03
20,GACCAAUCUGCCCUCAGAGCUCGAGAACAUCUUCGGAUGCAGAGGAGGCAGGCUUCGGUGGGGCGAUAGCGCCAACGUCCUCAACCUCCAAUGCAUCCCACCACAUGAUGAUGCCUGAAGAGCCUUGGUUUUUUG,-1.53
21,GACCAAUCUGCCCUCAGAGCUCGAGAACAUCUUCGGAUGCAGAGGAGGCAGGCUUCGGUGGUGCGAUAGCGCCAACGUCCUCAACCUCCAAUGCAUCCCACCACAUGAUGAUGCCUGAAGAGCCUUGGUUUUUUG,-0.118
